Laboratory results: patent publication US20070249534A1, “Novel medicament for treating neurodegenerative diseases” (priority 2001, published 2007)
Read-outs that look alike come from different tables or passages of the source. Where a SMILES comes first, the peptide text is derived from it. Where no end group is shown, it is not given here. [ ]: non-standard residue; d: D form. Sec = N[C@@H](C[SeH])C(=O)O

Columns and labels:
Dami cells [1] = assay: Cytotoxicity-inhibitory (cell death-inhibitory) activity assay using Dami cells; assay type: cell-based; details: for cell death-inhibitory activity (in words): selenoprotein P and fragments purified from plasma
Method: Using Dami cells (described in Greenberg S. M. et al., Blood, vol. 72, p. 1968-1977 (1988)) for use in assay system for cytotoxicity-inhibitory activity, the cells were washed twice with assay medium (50% PBS/SA/0.03% HSA (manufactured by SIGMA) or SA/0.05% BSA free from fatty acid (WAKO)/4 μM long-chain polyvalent fatty acid (e.g. arachidonic acid, linoleic acid or linolenic acid)) and suspended in the same medium at 3×10^4 cells/ml. The cell suspension was added to a 96-well plate in each 200 μl for wells for sample addition or in each 100 μl for wells for serial dilution. […] After stirring, a serial dilution was made with the wells containing 100 μl cell suspension. The plate was incubated at 37° C. in CO2 incubator for 4 to 5 days followed by assessment of survival of the cells.

Rolling Mouse Nagoya [2] = details: intraperitoneal administration; cited from earlier work
Dami cells [3] = system: Dami cells
Dami cells [4] = details: stated as known; cited from earlier work
Rolling Mouse Nagoya [5] = assay: Effect of selenoprotein P on ataxia (stumbling index) in Rolling Mouse Nagoya; assay type: in vivo
Method: In order to confirm the activity to ameliorate ataxia of selenoprotein P, Rolling Mouse Nagoya, the established model of ataxia, was used with a stumbling index. Animals were divided into the following groups each consisting of ten animals: a control group intraperitoneally administered with saline (0.25 mL/head/week); a group intraperitoneally administered with a low dose of selenoprotein P (0.05 mg/head/week; 0.25 mL/head/week); and a group intraperitoneally administered with a high dose of selenoprotein P (0.5 mg/head/week; 0.25 mL/head/week). The animals received intraperitoneal administration once a week for three weeks.
The animals were Rolling Mouse Nagoya (113 animals, five to eight months old, weighing 19.1 to 36.2 g) regardless of sex. Grouping of the animals was based on the weight measured on the day before initiation of the experiment and a stumbling index measured before initiation of the experiment. A quantity of voluntary motion was measured during thirty minutes immediately before administration (during 30-0 min. before administration), immediately after administration (during 0-30 min. after administration), one hour after administration (during 60-90 min. after administration), three hours after administration (during 180-210 min. after administration), and seven hours after administration (during 420-450 min. after administration) with a device for measuring voluntary motion. Stumbling of animals was counted with a video camera set upon the device for measuring voluntary motion during the same time period as that of measurement of voluntary motion. A stumbling index was calculated by the formula: [Count of stumbling (count/30 min.)]/[Voluntary motion (count/30 min.)]. The results are shown in FIGS. 1 to 3 wherein #: p<0.05, ##: p<0.01, being significant as compared to values before administration (paired t-test); *: p<0.05, being significant as compared to control during the same time period (Turkey test).

[6] = Stability of selenoprotein P and its fragments to heat, denaturing agent, pH, protease in blood; assay type: physicochemical; details: compared to common enzymes
Dami cells [7] = assay: Toxicity of selenium-containing substances to cells in culture; details: concentration where selenocystine / other selenium-containing substances show toxicity

## CC[C@H](C)[C@H](NC(=O)[C@H](CC(C)C)NC(=O)[C@H](Cc1c[nH]cn1)NC(=O)[C@H](CCCNC(=N)N)NC(=O)[C@H](CO)NC(=O)[C@H](Cc1c[nH]cn1)NC(=O)[C@H](CO)NC(=O)[C@H](CO)NC(=O)[C@H](C[SeH])NC(=O)[C@H](CO)NC(=O)[C@@H](N)CCCNC(=N)N)C(=O)N[C@@H](Cc1ccccc1)C(=O)N[C@@H](CCC(=O)O)C(=O)N[C@@H](CCCCN)C(=O)O [Peptide 6, Arg Ser Xaa Ser Ser His Ser Arg His Leu Ile Phe Glu Lys] (H-RS[Sec]SSHSRHLIFEK-OH)
Dami cells [1]; Dami cells, peptides of Preparation 2
  cytotoxicity-inhibitory activity (in words): most effectively at the lowest concentration

## NC(=O)[C@@H]1CCCN1C(=O)[C@H](Cc1cnc[nH]1)NC(=O)[C@@H]1CCC(=O)N1 [TRH, thyrotropin-releasing hormone]
Rolling Mouse Nagoya [2]
  duration of the efficacy: about 1 hours

## N[C@@H](C[Se][Se]C[C@H](N)C(=O)O)C(=O)O [selenocystine]
Dami cells [3]
  toxicity (in words): exhibited toxicity
Dami cells [4]
  toxicity when added alone to cell culture: fairly strong toxicity

## Lys Arg Cys Ile Asn Gln Leu Leu Cys Lys Leu Pro Thr Asp Ser Glu Leu Ala Pro Arg Ser Xaa Cys Cys H is Cys Arg H is Leu Ile Phe Glu Lys (KRCINQLLCKLPTDSELAPRS[Sec]CCHCRHLIFEK; cysteine pairing not given here; listed as Human plasma) [SEQ ID NO: 3, peptide purified under reduced condition from selenoprotein P fragment]
Dami cells [1]
  cell death-inhibitory activity (in words): had the cell death-inhibiting activity

B1: selenoprotein P (protein)
chain: ESQDQSSLCKQPPAWSIRDQDPMLNSNGSVTVVALLQASUYLCILQASKLEDLRVKLKKEGYSNISYIVVNHQGISSRLKYTHLKNKVSEHIPVYQQEENQTDVWTLLNGSKDDFLIYDRCGRLVYHLGLPFSFLTFPYVEEAIKIAYCEKKCGNCSLTTLKDEDFCKRVSLATVDKTVETPSPHYHHEHHHNHGHQHLGSSELSENQQPGAPNAPTHPAPPGLHHHHKHKGQHRQGHPENRDMPASEDLQDLQKKLCRKRCINQLLCKLPTDSELAPRSUCCHCRHLIFEKTGSAITUQCKENLPSLCSUQGLRAEENITESCQURLPPAAUQISQQLIPTEASASURUKNQAKKUEUPSN
modifications: non-natural residues
Rolling Mouse Nagoya [5]; high dose 0.5 mg/head/week i.p., 420-450 min Week 1, 60-90, 180-210, 420-450 min Week 2, 60-90 min Week 3
  stumbling index compared with values before administration: significant decrease
Rolling Mouse Nagoya [5]; high dose 0.5 mg/head/week i.p., during 60-90 min. after administration on Week 1
  stumbling index compared with control group, significance: significant decrease
Rolling Mouse Nagoya [5]; high dose 0.5 mg/head/week i.p., each time period on Week 1, Week 2 and Week 3
  stumbling index compared with control group: remained lower than the control group
Rolling Mouse Nagoya [5]; low dose 0.05 mg/head/week i.p.
  stumbling index, low dose group: no significant decrease
[6]
  stability to heat, a denaturing agent, a broad range of pH or protease in blood: rather stable
Dami cells [1]
  cell death-inhibitory activity (in words): much lower than that of the fragment thereof
Dami cells [7]
  toxicity (in words): no strong toxicity

B2: SEQ ID NO: 2: selenoprotein P fragment, 260th to 362nd amino acids (103 C-terminal residues) (protein, listed as Human plasma)
chain: KRCINQLLCKLPTDSELAPRS[code U]CCHCRHLIFEKTGSAIT[code U]QCKENLPSLCS[code U]QGLRAEENITESCQ[code U]RLPPAA[code U]QISQQLIPTEASAS[code U]R[code U]KNQAKK[code U]E[code U]PSN
modifications: ends and bridges not checked
Dami cells [1]
  cell death-inhibitory activity (in words): having the cell death-inhibiting activity
